This assay concerns the target 新冠原始假病毒的S蛋白 (FNV-SARS-CoV-2-S) (SARS-CoV-2, UniProt P0DTC2 14-1273). The assay can be described thus: cell-based or functional assay.

B1: 抗SARS-CoV-2(COVID-19)S蛋白RBD单克隆抗体B15-5-B3 (antibody, V domains shown)
VH: EVKFEESGGGLVQPGGSMKLSCAASGFTFSDAWMDWVRQSPEKGLEWVAEIRNKANNHATYYAESVKGRFTISRDDSKSSVYLQMNSLRAEDTGIYYCTPYDYAYPWFWGQGTLVTVSA
VL: EIVLTQSPTTMAASPGEKITITCSASSSISSHYLHWYQQKPGFSPKLLIYRSYSLASGFPGRFSGSGSGTSFSLSIGTMEAEDVATYYCQQGSSRITPFGGGTKLEIK
Turning to B1, the “假病毒中和效应 EC50 (luciferase, HEK293-ACE2 cells)” value came to 0.0369 µg/mL.

These data come from patent CN113999301A (JIANGSU XINTRUM PHARMACEUTICALS CO LTD, dated 2022).
